Here are results for two sequences from PMC8745191.

Substitutions are numbered along the chain they refer to.

Holding throughout (conditions): LightShift Chemiluminescent EMSA kit, manufacturer's protocol; binding buffer, pH and temperature not stated; protein eluted in 20 mM Tris-HCl pH 8.0, 500 mM …
A general note: A gel shift assay detects complexes by their altered migration in electrophoresis.

Data set [1] concerns the target T1, His-STOP1 (Arabidopsis thaliana) (UniProt Q9C8N5).
T1 sequence: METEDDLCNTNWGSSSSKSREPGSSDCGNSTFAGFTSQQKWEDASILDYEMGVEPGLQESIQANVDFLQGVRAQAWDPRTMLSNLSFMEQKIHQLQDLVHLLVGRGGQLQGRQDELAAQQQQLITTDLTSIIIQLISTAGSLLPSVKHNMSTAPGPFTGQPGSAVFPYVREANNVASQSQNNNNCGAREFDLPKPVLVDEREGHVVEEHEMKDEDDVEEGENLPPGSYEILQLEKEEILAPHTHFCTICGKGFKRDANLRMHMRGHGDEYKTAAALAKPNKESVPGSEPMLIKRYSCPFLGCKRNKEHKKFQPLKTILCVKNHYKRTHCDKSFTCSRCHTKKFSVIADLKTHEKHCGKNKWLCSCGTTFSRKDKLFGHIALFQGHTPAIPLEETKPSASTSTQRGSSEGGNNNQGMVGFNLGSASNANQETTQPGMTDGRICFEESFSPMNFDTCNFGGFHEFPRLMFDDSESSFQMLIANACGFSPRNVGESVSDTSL
In words: EMSA.

The target of data set [2] is T2, His-STOP1 H266Y H266Y (Arabidopsis thaliana (stop1-1 allele)) (UniProt Q9C8N5).
T2 sequence: T1 sequence with H266Y
In words: EMSA.

Data set [3] addresses T1, His-STOP1 (Arabidopsis thaliana). In words: competition.

On to “TTGCATTTAAATTATCAAAGACTAAGATAAGCCTAGAATAATTTAAAATGTAAACTATAGTATACGTCAGAACCTACAGATACAACCTTCCTCGTATAATCCCTAAACAGAATTTTAATT (double strand) [P3 (F2-2) LKS1 promoter probe]”, for which the binding result is listed as “binds” in data set [1] and “no binding” in data set [2].
With “TTGCATTTAAATTATCAAAGACTAAGATAAGCCTAGAATAATTTAAAATGTAAACTATAGTATACGTCAGAACCTACAGATACAACCTTCCTCGTATAATCCCTAAACAGAATTTTAATT (double strand) [P3 unlabeled competitor (cold probe)]”, the binding entry in data set [3] is recorded as “binds”.
